Reference: doi:10.1101/2021.06.16.448340 (bioRxiv, 2021)

B2: QcrB, cytochrome b subunit of complex III (natural protein, Corynebacterium glutamicum, UniProt Q79VE9 1-539, looked up)
chain: MSLATVGNNLDSRYTMASGIRRQINKVFPTHWSFMLGEIALYSFIVLLLTGVYLTLFFDPSITKVIYDGGYLPLNGVEMSRAYATALDISFEVRGGLFIRQMHHWAALLFVVSMLVHMLRIFFTGAFRRPREANWIIGVVLIILGMAEGFMGYSLPDDLLSGVGLRIMSAIIVGLPIIGTWMHWLIFGGDFPSDLMLDRFYIAHVLIIPAILLGLIAAHLALVWYQKHTQFPGAGRTENNVIGIRIMPLFAVKAVAFGLIVFGFLALLAGVTTINAIWNLGPYNPSQVSAGSQPDVYMLWTDGAARVMPAWELYLGNYTIPAVFWVAVMLGILVVLLVTYPFIERKFTGDDAHHNLLQRPRDVPVRTSLGVMALVFYILLTVSGGNDVYAMQFHVSLNAMTWIGRIGLIVGPAIAYFITYRLCIGLQRSDREVLEHGIETGIIKQMPNGAFIEVHQPLGPVDDHGHPIPLPYAGAAVPKQMNQLGYAEVETRGGFFGPDPEDIRAKAKEIEHANHIEEANTLRALNEANIERDKNEGKN

Experiments:
[1] = molecular target: T1, CtaD with Strep-tag, subunit I homologue of complex IV (Corynebacterium glutamicum, UniProt Q79VD7 1-584); assay: cryo-EM structure
T1 sequence (looked up): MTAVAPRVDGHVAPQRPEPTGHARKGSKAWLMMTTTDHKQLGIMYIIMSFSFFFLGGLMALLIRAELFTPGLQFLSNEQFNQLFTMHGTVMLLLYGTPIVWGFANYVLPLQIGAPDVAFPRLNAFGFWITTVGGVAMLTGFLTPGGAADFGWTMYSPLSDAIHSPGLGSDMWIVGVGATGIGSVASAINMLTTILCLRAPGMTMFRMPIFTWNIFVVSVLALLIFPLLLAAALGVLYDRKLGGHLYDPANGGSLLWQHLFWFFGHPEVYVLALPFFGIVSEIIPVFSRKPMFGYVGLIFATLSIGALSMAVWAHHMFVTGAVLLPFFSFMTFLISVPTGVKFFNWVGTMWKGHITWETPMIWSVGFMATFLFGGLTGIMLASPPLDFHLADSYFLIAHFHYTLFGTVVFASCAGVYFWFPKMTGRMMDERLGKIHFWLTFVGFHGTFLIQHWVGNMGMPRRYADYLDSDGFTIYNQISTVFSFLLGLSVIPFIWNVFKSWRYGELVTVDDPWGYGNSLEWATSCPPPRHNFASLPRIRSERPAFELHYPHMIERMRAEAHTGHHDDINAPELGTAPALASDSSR

[2] = molecular target: B2; assay: cryo-EM structure
[3] = molecular target: T1, CtaD with Strep-tag, subunit I …; assay: affinity purification with mass spectrometry
cryo-EM structure = molecular target: the molecule itself; assay: cryo-EM structure

B1: AscA (P20, PRSAF1) (natural protein, Corynebacterium glutamicum, UniProt Q8NP09 1-147, looked up)
chain: MAGSSHTIEPEIYRGVSTLDEPSAAWGWHGLKRNTIQLAGWISVLFMLGYNFGNHKGHVETIWLLVITALLVIGLLIHLFEPKLSQVRTITSRNKPVGHVEPDWTYDQATLTGTWGNLTDSQLRSVNIEPSRVAHLRAADSAKELDN
B1: binds [1]; binds [2].

B2: binds [3].

B3: Complex III (cyt. bc1 complex) protomer, QcrA-QcrB-QcrC (complex, Corynebacterium glutamicum)
chain 1: MSNNNDKQYTTQELNAMSNEDLARLGTELDDVTIAYRKERFPIANDPAEKRAARAVTFWLVLGIIGGLGFLATYIFWPWEYKAHGDEGLLAYTLYTPMLGITSGLCILSLGFAVVLYVKKFIPEEIAVQRRHDGPSEEVDRRTIVALLNDSWQTSTLGRRKLIMGLAGGGAVLAGLTIIAPMGGMIKNPWNPKEGPMDVQGDGTLWTSGWTLVENDVKVYLGRDTAAIAESHTDATGEHWSTTGVSRLVRMRPEDLAAASMETVFPLPAEMVNDGAEYDPAKDVYEHQMHSVHGPRNAVMLIRLRTADAEKVIEREGQESFHYGDYYAYSKICTHIGCPTSLYEAQTNRILCPCHQSQFDALHYGKPVFGPAARALPQLPITVDEEGYLIAAGNFIEPLGPAFWERKS
chain 2: MSLATVGNNLDSRYTMASGIRRQINKVFPTHWSFMLGEIALYSFIVLLLTGVYLTLFFDPSITKVIYDGGYLPLNGVEMSRAYATALDISFEVRGGLFIRQMHHWAALLFVVSMLVHMLRIFFTGAFRRPREANWIIGVVLIILGMAEGFMGYSLPDDLLSGVGLRIMSAIIVGLPIIGTWMHWLIFGGDFPSDLMLDRFYIAHVLIIPAILLGLIAAHLALVWYQKHTQFPGAGRTENNVIGIRIMPLFAVKAVAFGLIVFGFLALLAGVTTINAIWNLGPYNPSQVSAGSQPDVYMLWTDGAARVMPAWELYLGNYTIPAVFWVAVMLGILVVLLVTYPFIERKFTGDDAHHNLLQRPRDVPVRTSLGVMALVFYILLTVSGGNDVYAMQFHVSLNAMTWIGRIGLIVGPAIAYFITYRLCIGLQRSDREVLEHGIETGIIKQMPNGAFIEVHQPLGPVDDHGHPIPLPYAGAAVPKQMNQLGYAEVETRGGFFGPDPEDIRAKAKEIEHANHIEEANTLRALNEANIERDKNEGKN
chain 3: MAKPSAKKVKNRRKVRRTVAGALALTIGLSGAGILATAITPDAQVATAQRDDQALISEGKDLYDVACITCHGVNLQGVEDRGPSLVGVGEGAVYFQVHSGRMPILRNEAQAERKAPRYTEAQTLAIAAYVAANGGGPGLVYNEDGTLAMEELRGENYDGQITSADVARGGDLFRLNCASCHNFTGRGGALSSGKYAPNLDAANEQEIYQAMLTGPQNMPKFSDRQLSADEKKDIIAFIKSTKETPSPGGYSLGSLGPVAEGLFMWVFGILVLVAAAMWIGSRS
In the case of B3, the “stoichiometry N” value (cryo-EM structure) is reported as 2.
